Reference: patent US20070173444A1 (AFFYMAX, published 2007)
Bridge positions count the residues as written; N and C are the ends.

Legend:
[1] = target: T1, IL-5RaECD (the extracellular domain (ECD) of the human IL-5 receptor a chain) (human, UniProt Q01344 21-342, extensively glycosylated); experiment: scintillation proximity competition assay, 20 pM [125I] IL-5, soluble IL-5Ra on beads; dimer of the printed monomer
T1 construct: extracellular domain; also called IL-5RαECD; soluble IL-5Ra
T1 sequence (Q01344 21-342, looked up): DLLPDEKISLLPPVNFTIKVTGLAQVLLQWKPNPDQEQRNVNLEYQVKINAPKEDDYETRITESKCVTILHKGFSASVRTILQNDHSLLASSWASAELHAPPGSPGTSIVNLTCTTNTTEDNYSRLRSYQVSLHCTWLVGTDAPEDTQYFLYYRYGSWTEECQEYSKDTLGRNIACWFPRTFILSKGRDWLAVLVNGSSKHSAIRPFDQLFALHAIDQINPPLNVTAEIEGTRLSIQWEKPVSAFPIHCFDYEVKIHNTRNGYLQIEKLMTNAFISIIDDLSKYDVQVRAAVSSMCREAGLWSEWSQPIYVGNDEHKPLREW
Method: Binding affinities of synthetic peptides for IL-5Ra were measured in a scintillation proximity assay (SPA) using radio-iodinated IL-5. Streptavidin coated SPA beads (Amersham) were suspended in IL-5 binding buffer (phosphate buffered saline, 0.1% bovine serum albumin, 0.2% NaN3) at 2 mg beads/ml of buffer. Biotinylated mAb 179 was adsorbed onto the beads at a ratio of 2 ig Ab/mg beads by incubating the beads and antibody with agitation for at least 2 h. at 4. The beads were pelleted at 2500 rpm and resuspended at 2 mg/ml in binding buffer. Soluble IL-5Ra was then adsorbed onto the beads by diluting a solution of soluble receptor harvest 1:500 into the bead suspension and incubating with agitation for 2 hr at 4. The beads were again pelleted at 2500 rpm and resuspended at 2 mg/ml in binding buffer. Competition binding assays were carried out in 100p1 reactions in white polystyrene microtiter plates. These reactions contained 0.05 mg of receptor coated SPA beads, various concentrations of test peptide diluted in binding buffer, and 20 pM [₁₂₅I] IL-5 (Amersham). The plates were incubated at room temperature for 1 hour with agitation, then centrifuged for 5 min at 1500 rpm followed by scintillation counting on a Topcount instrument (Packard). Total binding was defined by the amount of [₁₂₅I] IL-5 bound in the absence of any competitor. Non-specific binding was defined by the amount of [₁₂₅I] IL-5 bound in the presence of 30 nM IL-5. Peptide binding data was analyzed to determine the peptide concentration required to reduce specific [₁₂₅I] IL-5 binding by 50% (IC₅₀). In each instance, the dimer has both intramolecular and intermolecular disulfide linkages as shown generically below: […]

[2] = target: T1, IL-5RaECD (the extracellular domain …); experiment: competition with [125I] IL-5 for binding to IL-5Ra ECD
Method: Binding affinities of synthetic peptides for IL-5Ra were measured in a competition binding assay using radio-iodinated IL-5. Immulon 4 (Dynatech) microtiter wells were coated with streptavidin (Sigma) by incubating 100 ul of a 50 ug/ml solution in PBS for 30 min. at 37. The wells were blocked with 200 ul of 1% BSA in PBS for 15 min. at 37, followed by 100 III of biotinylated monoclonal antibody, designated mAb 179, at 5 u. g/ml in PBS. Soluble IL-5Ra was then immobilized in the wells by incubating 100 µl of a solution of soluble receptor harvest diluted 1: 5000 in PBS/0.1% BSA for 1 hr. at 4. After washing away unbound receptor, 50 ul of various concentrations of test peptide diluted in PBS/0.1% BSA were added to the wells, followed by 50 µl of a fixed concentration of [₁₂₅I] IL-5 (Amersham). The binding reactions were incubated at 4 C for 2 hr, then washed with PBS to remove unbound [₁₂₅I] IL-5. Bound [₁₂₅I] IL-5 was determined by gamma counting.
Total binding was defined by the amount of [₁₂₅I] IL-5 bound in the absence of any competitor. Non-specific binding was defined by the amount of [₁₂₅I] IL-5 bound in the presence of 30 nM IL-5. Peptide binding data was analyzed to determine the peptide concentration required to reduce specific [₁₂₅I]

[3] = target: chimeric IL-5Ra/EGFR receptor (human, UniProt Q01344 21-342); experiment: cell-based or functional assay
[4] = target: T2, native IL-5R a/β complex on TF-1 cells (human, UniProt Q01344 21-420; P32927 17-897); experiment: cell-based or functional assay
T2 sequence (looked up) 1: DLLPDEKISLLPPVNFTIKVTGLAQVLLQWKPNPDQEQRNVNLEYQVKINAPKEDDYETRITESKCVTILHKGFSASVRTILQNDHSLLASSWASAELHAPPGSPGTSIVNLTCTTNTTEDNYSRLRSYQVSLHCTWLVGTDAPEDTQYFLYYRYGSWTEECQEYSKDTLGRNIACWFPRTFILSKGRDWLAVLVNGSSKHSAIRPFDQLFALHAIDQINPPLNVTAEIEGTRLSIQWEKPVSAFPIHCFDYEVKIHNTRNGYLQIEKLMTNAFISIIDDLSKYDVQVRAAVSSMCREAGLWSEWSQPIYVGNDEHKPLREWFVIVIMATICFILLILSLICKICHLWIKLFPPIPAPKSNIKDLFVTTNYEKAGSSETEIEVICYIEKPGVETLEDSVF
T2 sequence (looked up) 2: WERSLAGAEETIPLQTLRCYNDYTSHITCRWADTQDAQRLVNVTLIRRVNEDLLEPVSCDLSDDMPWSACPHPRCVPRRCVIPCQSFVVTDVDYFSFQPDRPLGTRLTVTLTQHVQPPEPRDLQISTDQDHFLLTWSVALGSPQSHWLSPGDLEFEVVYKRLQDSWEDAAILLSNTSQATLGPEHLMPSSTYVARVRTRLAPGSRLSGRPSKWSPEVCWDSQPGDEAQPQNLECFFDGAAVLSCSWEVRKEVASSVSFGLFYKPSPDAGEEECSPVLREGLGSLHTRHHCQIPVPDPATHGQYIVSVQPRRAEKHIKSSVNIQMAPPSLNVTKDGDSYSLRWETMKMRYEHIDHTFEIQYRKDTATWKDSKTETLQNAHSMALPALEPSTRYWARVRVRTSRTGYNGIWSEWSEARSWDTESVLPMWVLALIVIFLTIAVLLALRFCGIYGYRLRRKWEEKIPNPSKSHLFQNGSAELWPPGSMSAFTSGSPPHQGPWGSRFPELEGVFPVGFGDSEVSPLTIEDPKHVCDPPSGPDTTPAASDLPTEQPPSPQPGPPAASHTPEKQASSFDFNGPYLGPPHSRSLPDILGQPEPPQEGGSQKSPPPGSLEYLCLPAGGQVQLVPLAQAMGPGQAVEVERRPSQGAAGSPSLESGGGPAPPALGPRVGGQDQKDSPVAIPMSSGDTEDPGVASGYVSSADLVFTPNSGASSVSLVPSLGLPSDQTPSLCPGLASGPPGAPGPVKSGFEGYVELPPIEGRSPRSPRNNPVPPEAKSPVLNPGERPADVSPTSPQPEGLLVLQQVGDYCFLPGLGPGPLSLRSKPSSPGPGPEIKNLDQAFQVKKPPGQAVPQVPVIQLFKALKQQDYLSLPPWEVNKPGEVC

[5] = target: T2, native IL-5R a/β complex on TF-1 cells; experiment: competition with [125I] IL-5 binding to TF-1 cells; AF 18748 as competitor
[6] = target: T2, native IL-5R a/β complex on TF-1 cells; experiment: cell-based or functional assay; remark: listed apart in the source

B1: AF 18748 (a dimer of residues 32-50 of SEQ ID NO: 8) (peptide)
peptide: H-TGGGDGYVCVEWARCPTCK-OH
modifications: disulfide 15-18; also: homodimer via interchain disulfide Cys9-Cys9
notes: Synthetic dimer made with orthogonal protecting groups
B1 was tested, and the “SPA pIC50” value [1] was 9.1 negative log of the molar IC50, the IC50 [2] was 0.78 nM and the “EC50 (read off the curve), luciferase reporter activity of IL-5Ra/EGFR Ba/F3 cells” value [3] was roughly 0.03 nM. For the same binder, the “Microphysiometer pIC50 (block of TF-1 cell response to IL-5)” value [4] was 9.6 negative log of the molar IC50, the IC50 [5] was 0.4 nM and the “inhibition of IL-5 induced human eosinophil adhesion to immobilized IgG, IC50” value [6] was 0.348 nM.
